Test: soluble on expression in E. coli; label from the status in PepcDB or PDB records

Q: Which “soluble on expression in E. coli” value does the source give for “MGSDKIHHHHHHMSLTIDGVTKKFGTFTAVNNLHVSVPKGEMFGMLGANGAGKTTTFRMILGLLEPTEGTIHWREQPLTYNQTNCIGYLPEERGLYPKLTVKDQLKYLGRLKGMKTQDIQKEMKMWLERFEVPEYEHKRVEQLSKGNQQKIQFIASVLHRPELLILDEPFSGLDPVNVELLKKAVIDLKKEGTTILFSSHRMEHVEELCQHLCILHRGSPVVEGNLKNIKRSFGKKNVIIQGEFALEPLVDIPGVLRHQETSAGAKFQIANEETAKLLFQAVATAGFVQKFELEEPSLHDIFVEKVGTRYE” here?
A: not soluble

Q: Which “soluble on expression in E. coli” value does the source give for “MNRTLPLLPALALGVLLGLPASGQATCYRVTSVGSETTTSNTQIRPGEGTAGSWTGACDTCNGSLGLPSVVNVSDESFQPYPTLIASAVAPLTQYGATGGYDPERVFFRCSAGDAVYEMFSTNGDDLYSGYYTGADTVGNDIGLQDAYRTAWPNVLLRLTNVETGETITPIWKERQLSGLDIDSRGFQLVKAKNLAAVRAELYSAPLEAIRYYSPTILSQPYSYTQPAAYIAIKGPGLTAPTVGQAHVGGNWGGWYSNWPGAIGLYRYVTLKRYPTCAVMTVTPHVQFPSITLAEIDSGGVREAPFELTFKCQSGMTNGTGAGATALGIRVSSGALAASPALGLVNASGGLSYLLSDRYGEPGIARGVGIRIYRDGTPMTLLANENSAGGSNAEATGWYPAIGGATQANGGSGGIDLYRETFRARLEKLALGSQPGVTAGRVEATAQVVIRVQ” here?
A: not soluble

Q: Which “soluble on expression in E. coli” value does the source give for “MPEPRCTAIVNFLNLSHSILISIFSVSVMSNYHHNHNYQHRPRGYERLPGKRLPDRWNIYDNVGRDIDGTRFVPFKTPLDSSFFDGKNMPVELQFGVKTLISLAQQANKQIGLVIDLTNTDRYYKKTEWADHGVKYLKLNCPGHEVNEREDLVQDFINAVKEFVNDKENDGKLIGVHCTHGLNRTGYLICRYMIDVDNYSASDAISMFEYYRGHPMEREHYKKSLYEAERKKKYGKSSGKSSGNSADSTISSEQLHRNNSQ” here?
A: not soluble

Q: For “MNHTSGITPLHPSIFHNILGLVALQTTRVGGVSASPLDSLNLGTHVGDDPERVRENERRLCAFLEISCESIVTTGQVHGTEIAVVTGPGKLDGYDALITTVRGLFVGILTADCYPILIYDRRTRACGAAHAGWQGTAGRIAEKTVNAMHNSFGTRPEDCLAWVGTGISGECYEIGGEVAARFSSRYLKPSPSGEGRQLLDLSAANRDQLIEAGIPPSQVQCSELCSYRDADRFFSYRRDNGKTGRMLALIGLRHSD”, which “soluble on expression in E. coli” value is on record?
A: soluble

Q: For “MPLEGEYEPSPTQWVRDQVELYESSGGTKGTTLMDTGLPVIILTTLGAKSGKIRKTPLMRVEHDGKYAAVASLGGAPKHPVWYYNVLGTPAVELQDGAVRKEFTAREVTGEEKAQWWERAVAAYPPYAEYQEKTDREIPVFVLEPAG”, which “soluble on expression in E. coli” value is on record?
A: not soluble

Q: For “SNAEERLKMSTTTSTQDSGLLKVLLPPFEKKNNVKVDVIAVGTGQALKLGEAGDVDVVFVHARKLEDKFVADGFGVNRKDVMYNDFVIVGPKNDPAGIAKAKTAAEALKLLATKGATFISRGDKSGTHTKELDLWKSAGVDPKGNWYVEAGQGMGPVITMATERRAYTLTDRGTYNAFKGAKTDLVILFQGEKGLFNPYGIMAVNPKKFPHVKYDLAMKLIDYVTGPEGLKIISDY”, which “soluble on expression in E. coli” value is on record?
A: soluble

Q: Which “soluble on expression in E. coli” value does the source give for “MAILKAQHLAKSYKKRKVVSDVSLQVESGQIVGLLGPNGAGKTTSFYMIVGLVARDEGTITIDDNDISILPMHSRSRMGIGYLPQEASIFRKLSVEDNIMAVLQTREELTHEERQDKLEDLLEEFHIQHIRKSAGMALSGGERRRVEIARALAANPQFILLDEPFAGVDPISVIDIKKIIEHLRDRGLGVLITDHNVRETLDVCEKAYIVSQGRLIAEGTPQDVLNNEQVKQVYLGEQFRL” here?
A: not soluble

Q: Which “soluble on expression in E. coli” value does the source give for “MKLVVCSESDTAGQNIKDNLLTFADFEEKDVGEFKLYLSDEFYIAETKERLIYADHIDEKLAKYIDFEEILFASRHSSKDGRKIFTVHVSGNVGTADFGGKPYSLAKPSPQTMKNYVLALRERLDRKPEFEFTMEVTHHGPSEISKPSAFYEIGSTEEEWKDREAAEVVAEAMLDAIRAEKMDWNVAVGVGGTHYAPRQTEIMLTTTFTFGHNFAKYTFEHLTAEFLVKAVKLSEAEYIIIDEKSVNSAVKKIVNEAAEVAGVEVLKSKKVKKDFRLV” here?
A: soluble

From the DeepSol protein solubility set
